Test results as given in publication PMC7079142.
Positions count from the first letter of the chain named. In names and notes the source's numbering stands. Where two headings read alike, the source gives them in different places.

How the values were obtained:
StrepII-SUMO-DUX4-His6 [1] = biological target: T1, StrepII-SUMO-DUX4-His6 (Homo sapiens, UniProt Q9UBX2 1-424); test: fluorescence polarization
StrepII-SUMO-DUX4-His6 [2] = biological target: T1, StrepII-SUMO-DUX4-His6; test: TR-FRET competition
PROP1-cMyc-DDK [3] = biological target: T2, PROP1-cMyc-DDK (UniProt O75360 1-226); test: TR-FRET competition
T2 sequence (O75360 whole entry): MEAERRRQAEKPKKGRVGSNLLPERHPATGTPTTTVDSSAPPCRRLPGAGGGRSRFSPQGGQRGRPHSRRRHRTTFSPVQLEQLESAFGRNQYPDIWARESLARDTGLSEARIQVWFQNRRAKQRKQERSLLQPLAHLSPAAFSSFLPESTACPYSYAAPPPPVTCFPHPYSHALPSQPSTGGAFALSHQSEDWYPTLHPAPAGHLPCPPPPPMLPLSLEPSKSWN

StrepII-SUMO-DUX4-His6 [4] = biological target: T1, StrepII-SUMO-DUX4-His6; test: TR-FRET competition; remark: listed apart in the source
StrepII-SUMO-DUX4-His6 [5] = biological target: T1, StrepII-SUMO-DUX4-His6; test: TR-FRET competition; remark: listed apart in the source
StrepII-SUMO-DUX4-His6 [6] = biological target: T1, StrepII-SUMO-DUX4-His6; test: TR-FRET competition; remark: listed apart in the source
StrepII-SUMO-DUX4-His6 [7] = biological target: T1, StrepII-SUMO-DUX4-His6; test: TR-FRET competition; remark: listed apart in the source
PROP1-cMyc-DDK [8] = biological target: T2, PROP1-cMyc-DDK; test: TR-FRET competition; remark: listed apart in the source
StrepII-SUMO-DUX4-His6 [9] = biological target: T1, StrepII-SUMO-DUX4-His6; test: TR-FRET competition; remark: listed apart in the source
PROP1-cMyc-DDK [10] = biological target: T2, PROP1-cMyc-DDK; test: TR-FRET competition; remark: listed apart in the source
StrepII-SUMO-DUX4-His6 [11] = biological target: T1, StrepII-SUMO-DUX4-His6; test: TR-FRET competition; remark: listed apart in the source
StrepII-SUMO-DUX4-His6 [12] = biological target: T1, StrepII-SUMO-DUX4-His6; test: TR-FRET competition; remark: listed apart in the source
StrepII-SUMO-DUX4-His6 [13] = biological target: T1, StrepII-SUMO-DUX4-His6; test: TR-FRET competition; remark: listed apart in the source
StrepII-SUMO-DUX4-His6 [14] = biological target: T1, StrepII-SUMO-DUX4-His6; test: TR-FRET competition; remark: listed apart in the source
StrepII-SUMO-DUX4-His6 [15] = biological target: T1, StrepII-SUMO-DUX4-His6; test: TR-FRET competition; remark: listed apart in the source
StrepII-SUMO-DUX4-His6 [16] = biological target: T1, StrepII-SUMO-DUX4-His6; test: EMSA
StrepII-SUMO-DUX4-His6 [17] = biological target: T1, StrepII-SUMO-DUX4-His6; test: TR-FRET competition; remark: listed apart in the source
StrepII-SUMO-DUX4-His6 [18] = biological target: T1, StrepII-SUMO-DUX4-His6; test: TR-FRET competition; remark: listed apart in the source

T1 sequence (Q9UBX2 whole entry): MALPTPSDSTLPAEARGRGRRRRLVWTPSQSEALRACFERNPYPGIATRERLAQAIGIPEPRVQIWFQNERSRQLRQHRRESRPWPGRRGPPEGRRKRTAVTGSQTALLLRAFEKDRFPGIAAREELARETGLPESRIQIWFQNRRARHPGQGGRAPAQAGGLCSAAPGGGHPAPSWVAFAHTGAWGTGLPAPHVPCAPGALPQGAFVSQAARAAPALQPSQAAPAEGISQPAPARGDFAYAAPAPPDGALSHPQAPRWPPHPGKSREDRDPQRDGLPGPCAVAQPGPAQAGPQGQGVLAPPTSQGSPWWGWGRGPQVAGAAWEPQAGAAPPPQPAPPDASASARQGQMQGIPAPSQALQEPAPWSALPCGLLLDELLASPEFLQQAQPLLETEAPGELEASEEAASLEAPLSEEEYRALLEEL

B1: Kd aptamer as printed in text and Fig 7 (structured_DNA)
DNA: GCTAACTTAATCAACCGCAGGTTGATTAGCCCATTAGC
Question: B1 was tested. Which Kd (StrepII-SUMO-DUX4-His6 [1]) did it give?
Answer: ~20 nM

B2: DUX4_CTT_R7CCC (DUX4_CTT_loop) (structured_DNA)
DNA: B1 DNA with G29A, A33G
Question: Which results are given for B2?
Answer: binding signal (StrepII-SUMO-DUX4-His6 [2]): ~20 fold affinity vs backbone; binding signal (PROP1-cMyc-DDK [3]): ~5 fold IC50 gain vs DUX4_CTT; binding signal (StrepII-SUMO-DUX4-His6 [4]): ~21 fold IC50 gain vs DUX4_CTT

B3: DUX4_TCT_R7CCC (structured_DNA)
DNA: B1 DNA with C6T, T7C
Question: How did the binding signal (StrepII-SUMO-DUX4-His6 [5]) turn out when B3 was run?
Answer: ~10 fold affinity vs loop-free template

B4: DUX4_TCT (structured_DNA)
DNA: GCTAATCTAATCAACCGCAGGTTGATTAGATTAGC
Question: How did the binding signal (StrepII-SUMO-DUX4-His6 [6]) turn out when B4 was run?
Answer: ~3 fold higher IC50 than DUX4_CCT

B5: DUX4_CCT (structured_DNA)
DNA: B4 DNA with T6C, A30G
Question: Does B5 bind (StrepII-SUMO-DUX4-His6 [7])?
Answer: binds

B6: PROP1 aptamer (structured_DNA)
DNA: B4 DNA with C7T, C12T, G24A, G29A
Question: Does B6 bind (PROP1-cMyc-DDK [8])?
Answer: binds

B7: SELEX#1 (structured_DNA)
DNA: GCATAAACTTAATCAAGACCAGGTCATTGATTAACGCTCGTTTGG
Question: Does B7 bind (StrepII-SUMO-DUX4-His6 [9])?
Answer: binds

B8: SELEX#2 (structured_DNA)
DNA: TGGTGAAGCGCAAGGAAACTTAATCACAAGGTGATTAATTGTTTG
Question: Does B8 bind (StrepII-SUMO-DUX4-His6 [9])?
Answer: binds

B9: DUX4_CTT_F8C_R7CCC (structured_DNA)
DNA: GCTAACTTAACTCAACCGCAGGTTGATTAACCCGTTAGC
Question: Does B9 bind (PROP1-cMyc-DDK [10])?
Answer: binds

Question: What about the binding signal (StrepII-SUMO-DUX4-His6 [2]) of the same binder?
Answer: ~2 fold lower affinity than single-loop DUX4_CTT_R7CCC

B10: SELEX#5 (structured_DNA)
DNA: CTAGATTAACCCGTTTACCAAGCGATGGAAACTTAATCTCCATGG
Question: Does B10 bind (StrepII-SUMO-DUX4-His6 [9])?
Answer: binds

B11: DUX4_TCT_R7C (structured_DNA)
DNA: GCTAATCTAATCAACCGCAGGTTGATTAGCATTAGC
Question: Does B11 bind (StrepII-SUMO-DUX4-His6 [11])?
Answer: binds

B12: DUX4_TCT_F8CCCC (structured_DNA)
DNA: GCTAATCTAACCCCTCAACCGCAGGTTGATTAGATTAGC
Question: Does B12 bind (StrepII-SUMO-DUX4-His6 [12])?
Answer: binds

B13: DUX4_TCT_R7TTT (structured_DNA)
DNA: GCTAATCTAATCAACCGCAGGTTGATTAGTTTATTAGC
Question: Does B13 bind (StrepII-SUMO-DUX4-His6 [13])?
Answer: binds

B14: DUX4_TCT_F8C (structured_DNA)
DNA: GCTAATCTAACTCAACCGCAGGTTGATTAGATTAGC
Question: Does B14 bind (StrepII-SUMO-DUX4-His6 [14])?
Answer: binds

B15: DUX4_TCT_F8G (structured_DNA)
DNA: B14 DNA with C11G
Question: Does B15 bind (StrepII-SUMO-DUX4-His6 [15])?
Answer: binds

B16: DUX4_TCT_F8T (structured_DNA)
DNA: B14 DNA with C11T
Question: Does B16 bind (StrepII-SUMO-DUX4-His6 [15])?
Answer: binds

B17: DUX4_TCT_R7CCCCC (structured_DNA)
DNA: GCTAATCTAATCAACCGCAGGTTGATTAGCCCCCATTAGC
Question: Does B17 bind (StrepII-SUMO-DUX4-His6 [11])?
Answer: binds

B18: DUX4_CTT_R7CCC as in T1 for S3B-C (structured_DNA)
DNA: AGCTAACCTAATCAACCGCAGGTTGATTAGCCCGTTAGC
Question: Does B18 bind (StrepII-SUMO-DUX4-His6 [16])?
Answer: binds

B19: DUX4_TCT_F8CCC (structured_DNA)
DNA: GCTAATCTAACCCTCAACCGCAGGTTGATTAGATTAGC
Question: Does B19 bind (StrepII-SUMO-DUX4-His6 [12])?
Answer: binds

B20: DUX4_TCT_F8CC (structured_DNA)
DNA: GCTAATCTAACCTCAACCGCAGGTTGATTAGATTAGC
Question: Does B20 bind (StrepII-SUMO-DUX4-His6 [17])?
Answer: binds

B21: DUX4_TCT_F8CT (structured_DNA)
DNA: B20 DNA with C12T
Question: Does B21 bind (StrepII-SUMO-DUX4-His6 [12])?
Answer: binds

B22: DUX4_TCT_R7CCCC (structured_DNA)
DNA: GCTAATCTAATCAACCGCAGGTTGATTAGCCCCATTAGC
Question: Does B22 bind (StrepII-SUMO-DUX4-His6 [11])?
Answer: binds

B23: DUX4_TCT_R7CC (structured_DNA)
DNA: GCTAATCTAATCAACCGCAGGTTGATTAGCCATTAGC
Question: Does B23 bind (StrepII-SUMO-DUX4-His6 [18])?
Answer: binds
